Target: T1, Mu-type opioid receptor (Homo sapiens) (Homo sapiens, UniProt P35372 1-400)
T1 construct: Endogenous receptor of PANC-1 cells, PANC-1 MCTS, normal pancreatic epithelial cells and patient tissue (fixed cells or cell lysates); also called MOR; mu opioid receptor
Assay: co-immunoprecipitation: lysates of normal pancreatic epithelial cells or PANC-1 cells, IP anti-MOR, blot anti-CXCR4
Text: FIG. 3A-3D: There is no co-localization between MOR and CXCR4. FIG. 3A. […] Peak centers are shown. FIG. 3B. […] Peak centers are shown. FIG. 3C. Cross-correlation curves with s.e.m show no co-localization between MOR and CXCR4 in PANC-1 cells (diamonds, N=32 regions from 14 cells), PANC-1 MCTS (triangles, N=20 regions from 12 cells), and normal pancreatic epithelial cells (circles, N=21 regions from 13 cells). In all cases no long-range correlations were observed. FIG. 3D. Cell lysates from either normal pancreatic epithelial cells or PANC-1 cells were immunoprecipitated with anti-MOR antibody and immunoblotted with anti-CXCR4 antibody. CXCR4 was not detected in the MOR immunoprecipitate in either cell line.
Co-immunoprecipitation was performed using the co-immunoprecipitation kit (Pierce) per the manufacturer's protocol. Briefly, MOR antibody was immobilized using a coupling resin. PANC-1 or normal pancreatic epithelial cells were lysed using buffer containing 1% Nonidet P-40, 10% glycerol, 50 mM Tris-Cl, pH 7.4, 300 mM NaCl, 1.5 mM MgCl₂, 1 mM CaCl₂ and protease inhibitor tablets (Pierce) similarly as described before (Rozenfeld and Devi, 2007), pre-cleared and added to the antibody coupled resin and incubated with gentle shaking overnight at 4° C. After thorough washes, the protein sample co-immunoprecipitate was eluted and used for Western blotting with SSTR2 or CXCR4 antibodies. […]

T1 sequence (P35372 whole entry): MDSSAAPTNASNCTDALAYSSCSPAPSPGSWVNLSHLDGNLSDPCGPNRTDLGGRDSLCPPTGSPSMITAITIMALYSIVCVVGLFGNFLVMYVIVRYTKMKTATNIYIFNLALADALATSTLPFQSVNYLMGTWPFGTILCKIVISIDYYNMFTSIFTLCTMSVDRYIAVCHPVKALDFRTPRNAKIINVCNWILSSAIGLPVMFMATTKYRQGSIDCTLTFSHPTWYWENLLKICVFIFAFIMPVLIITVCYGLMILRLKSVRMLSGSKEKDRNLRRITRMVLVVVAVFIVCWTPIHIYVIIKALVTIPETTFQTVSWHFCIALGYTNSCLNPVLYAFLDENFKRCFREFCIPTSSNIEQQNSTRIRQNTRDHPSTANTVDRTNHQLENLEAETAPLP

binding result: no binding
B1: C-X-C motif receptor 4 (CXCR4) (receptor, human, UniProt P61073 1-352, looked up)
chain: MEGISIYTSDNYTEEMGSGDYDSMKEPCFREENANFNKIFLPTIYSIIFLTGIVGNGLVILVMGYQKKLRSMTDKYRLHLSVADLLFVITLPFWAVDAVANWYFGNFLCKAVHVIYTVNLYSSVLILAFISLDRYLAIVHATNSQRPRKLLAEKVVYVGVWIPALLLTIPDFIFANVSEADDRYICDRFYPNDLWVVVFQFQHIMVGLILPGIVILSCYCIIISKLSHSKGHQKRKALKTTVILILAFFACWLPYYIGISIDSFILLEIIKQGCEFENTVHKWISITEALAFFHCCLNPILYAFLGAKFKTSAQHALTSVSRGSSLKILSKGKRGGHSSVSTESESSSFHSS
notes: whole, on cells; Endogenous receptor in fixed cells or cell lysates

From patent US20180153953A1 (CITY OF HOPE, published 2018)
